The text below walks through data of US20260184786A1 (LINDIS BIOTECH, published 2026).

Assay [1] addresses T1, Human CD3E & CD3G (human, UniProt P07766;P09693).
T1 construct: recombinant, tag given as Lama Fc; also called CD3E & CD3G heterodimer protein; CD3E/G antigen
Nature of the assay: ELISA on plate-coated CD3E & CD3G heterodimer protein (Example 2); 95% CI 25,03 to 66,53 ng/ml, R squared 0.9718. The method, then: (§1) An ELISA plate was coated with CD3E & CD3G heterodimer protein (as shown in FIG. 3) at 100 ng/well at 4° C. overnight. The next day, the plate was blocked with a blocking solution (3% BSA in 1×PBS) for 2 h, washed with a washing solution and drained. The plate was then added with gradiently diluted humanized CD3 antibodies, and incubated at 37° C. for 1 h. The reaction solution was discarded, and the plate was washed and drained. The plate was then added with diluted detection antibody (THE™ His Tag Antibody [HRP]) at 100 μL per well and incubated at 37° C. for 1 h. The detection antibody was discarded, and the plate was washed and drained. The plate was then added with a single-component TMB color developing solution returned to room temperature at 100 μL per well, and the color development was performed at 37° C. for 10 min. After the color was developed, a stop solution was added to the plate at 100 μL per well to terminate the color development reaction. The absorbance was read at 450 nm using a microplate reader.

Another assay concerns the target T2, CD3 on Jurkat cells (human, UniProt P07766;P09693;P04234).
T2 construct: on the surface of Jurkat cells
The assay can be described thus: flow cytometry on Jurkat cells, FITC-labelled secondary antibody, MFI (Example 3). The method, then: The Jurkat cells were adjusted to a concentration of 4×10⁶ cells/ml with PBS, and the cell suspension (50 μl/well) and different concentrations of CD3 antibodies (50 μl/well) were sequentially added to a U-shaped 96-well plate and mixed evenly to achieve final antibody concentrations of […]. The cells were incubated in a 4° C. refrigerator for 1.5 h. After the incubation was completed, the plate was centrifuged (300 g, 5 min), then the supernatant was removed and the residue was washed with PBS (200 μl/well). Finally, FITC-conjugated AffiniPure Rat Anti-Mouse IgG (H+L) was added for staining, and flow cytometry was used for analysis and quantification.

Assay [2] addresses T1, Human CD3E & CD3G. The assay can be described thus: ELISA, plate coated with CD3E & CD3G heterodimer protein (100 ng/well), anti-His tag HRP detection (Example 2). The method, then: as §1
For assay [3], the target named is T1, Human CD3E & CD3G. Nature of the assay: ELISA on plate-coated CD3E & CD3G heterodimer protein (Example 2); 95% CI 8,947 to 24,24 ng/ml, R squared 0.9587. The method, then: as §1
Assay [4] has as its target T1, Human CD3E & CD3G. The assay can be described thus: ELISA on plate-coated CD3E & CD3G heterodimer protein (Example 2); 95% CI 20,94 to 55,12 ng/ml, R squared 0.9704. As for the experimental part: as §1
The target of assay [5] is T1, Human CD3E & CD3G. Nature of the assay: ELISA on plate-coated CD3E & CD3G heterodimer protein (Example 2); 95% CI 23,44 to 39,91 ng/ml, R squared 0.9911. The method, then: as §1

T1 sequence (P07766 23-126 limits assumed, chain 1 of 2): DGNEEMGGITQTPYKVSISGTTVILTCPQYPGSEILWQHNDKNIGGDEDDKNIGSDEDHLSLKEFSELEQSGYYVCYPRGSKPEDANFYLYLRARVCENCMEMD
T1 sequence (P09693 23-116 limits assumed, chain 2 of 2): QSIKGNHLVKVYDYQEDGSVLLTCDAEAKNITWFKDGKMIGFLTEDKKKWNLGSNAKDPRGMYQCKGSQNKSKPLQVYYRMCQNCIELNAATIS
T2 sequence (P07766 23-207, chain 1 of 3): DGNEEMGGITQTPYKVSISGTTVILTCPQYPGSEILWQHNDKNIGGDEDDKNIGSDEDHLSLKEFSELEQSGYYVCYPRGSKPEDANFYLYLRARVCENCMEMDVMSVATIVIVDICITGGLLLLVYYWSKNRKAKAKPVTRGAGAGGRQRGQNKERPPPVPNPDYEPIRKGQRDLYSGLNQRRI
T2 sequence (P09693 23-182, chain 2 of 3): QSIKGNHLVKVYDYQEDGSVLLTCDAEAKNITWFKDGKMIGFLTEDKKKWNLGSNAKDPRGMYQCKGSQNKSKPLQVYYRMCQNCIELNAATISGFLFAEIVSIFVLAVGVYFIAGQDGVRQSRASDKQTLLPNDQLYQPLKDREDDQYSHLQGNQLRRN
T2 sequence (P04234 22-171, chain 3 of 3): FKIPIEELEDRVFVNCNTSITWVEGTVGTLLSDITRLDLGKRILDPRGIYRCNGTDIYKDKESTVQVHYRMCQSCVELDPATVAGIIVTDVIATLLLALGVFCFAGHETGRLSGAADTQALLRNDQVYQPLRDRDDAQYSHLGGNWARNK

B1: VH_V2_VL_V4 (antibody, V domains shown)
VH: EVQLVESGGGLVQPGRSLRLSCAASGFTFNNYWMSWVRQAPGKGLEWVSAITKTGGSTYYPDSVKGRFTISRDNSKSTLYLQMNSLRAEDTATYYCTREYYYDPYIDYWGQGVLVTVSS
VL: QFALTQPRSVSGSLGQSVTLSCTRTTGNIGSNYVNWYQQHEGKAPKTMIYRDDKRPSGVPDRFSGSIDRSSNTASLTISGVQAEDEADYYCQSYSSGINIFGGGTKLTVL
notes: also called HV2-LV4
Consider B1, for which the EC50 in the assay with Human CD3E & CD3G [1] worked out at 0.0405 µg/mL. For the same molecule, in the assay with CD3 on Jurkat cells, the “EC50 (read off the curve)” value was about 0.05 µg/mL.

B2: VH_V2_VL_V2 (antibody, V domains shown)
VH: EVQLVESGGGLVQPGRSLRLSCAASGFTFNNYWMSWVRQAPGKGLEWVSAITKTGGSTYYPDSVKGRFTISRDNSKSTLYLQMNSLRAEDTATYYCTREYYYDPYIDYWGQGVLVTVSS
VL: QFALTQPRSVSGNLGSSVKISCKRTTGNIGSNYVNWYQQHEGKAPTTMIYRDDKRPDGVPDRFSGSKDRSGNTALLTINNLQTEDEADYYCQSYSSGINIFGGGTKLTVL
notes: also called HV2-LV2
With B2, the binding result with Human CD3E & CD3G [2] is recorded as “no binding (tested: 10 µg/ml)”.

B3: C3002HC-LV4 (antibody, V domains shown)
VH: EVQLVESGGGLVQPGGSLRLSCAASGFTFNNYWMTWIRQAPGKGLEWVASITKTGGSTYYPDSVKGRFTISRDNAKNSLYLQMNSLRAEDTAVYYCTREYYYDPYIDYWGQGTMVTVSS
VL: QFALTQPRSVSGSLGQSVTLSCTRTTGNIGSNYVNWYQQHEGKAPKTMIYRDDKRPSGVPDRFSGSIDRSSNTASLTISGVQAEDEADYYCQSYSSGINIFGGGTKLTVL
Take B3: in the assay with CD3 on Jurkat cells, the 50% effective concentration (EC50 (read off the curve)) is about 0.05 µg/mL.

B4: VH_V4_VL_V1 (antibody, V domains shown)
VH: EVQLVESGGGLVQPGGSLRLSCAASGFTFNNYWMTWIRQAPGKGLEWVASITKTGGSTYYPDSVKGRFTISRDNSKSTLYLQMNSLRAEDTAVYYCTREYYYDPYIDYWGQGTLVTVSS
VL: QSALTQPRSVSGSPGQSVTISCTGTTGNIGSNYVSWYQQHPGKAPKLMIYRDDKRPSGVPDRFSGSKSGNTASLTISGLQAEDEADYYCQSYSSGINIFGGGTKLTVL
notes: also called HV4-LV1
For the molecule B4, the binding result with Human CD3E & CD3G [2] is on record as “no binding (tested: 10 µg/ml)”.

B5: VH_V3_VL_V1 (antibody, V domains shown)
VH: EVQLVESGGGLVQPGRSLRLSCAASGFTFNNYWMSWVRQAPGKGLEWVASITKTGGSTYYPDSVKGRFTISRDNAKSTLYLQMNSLRSEDTATYYCTREYYYDPYIDYWGQGVLVTVSS
VL: QSALTQPRSVSGSPGQSVTISCTGTTGNIGSNYVSWYQQHPGKAPKLMIYRDDKRPSGVPDRFSGSKSGNTASLTISGLQAEDEADYYCQSYSSGINIFGGGTKLTVL
notes: also called HV3-LV1
Regarding B5, the binding result with Human CD3E & CD3G [2] is recorded as “no binding (tested: 10 µg/ml)”.

B6: VH_V1_VL_V4 (antibody, V domains shown)
VH: EVQLVESGGGLVQPGGSLRLSCAASGFTFNNYWMSWVRQAPGKGLEWVSAITKTGGSTYYADSVKGRFTISRDNSKNTLYLQMNSLRAEDTAVYYCTREYYYDPYIDYWGQGTLVTVSS
VL: QFALTQPRSVSGSLGQSVTLSCTRTTGNIGSNYVNWYQQHEGKAPKTMIYRDDKRPSGVPDRFSGSIDRSSNTASLTISGVQAEDEADYYCQSYSSGINIFGGGTKLTVL
notes: also called HV1-LV4
Molecule B6 yielded a 50% effective concentration (EC50) in the assay with Human CD3E & CD3G [3] of 0.0148 µg/mL. Moreover, the “EC50 (read off the curve)” value with CD3 on Jurkat cells is about 0.04 µg/mL.

B7: VH_V3_VL_V4 (antibody, V domains shown)
VH: EVQLVESGGGLVQPGRSLRLSCAASGFTFNNYWMSWVRQAPGKGLEWVASITKTGGSTYYPDSVKGRFTISRDNAKSTLYLQMNSLRSEDTATYYCTREYYYDPYIDYWGQGVLVTVSS
VL: QFALTQPRSVSGSLGQSVTLSCTRTTGNIGSNYVNWYQQHEGKAPKTMIYRDDKRPSGVPDRFSGSIDRSSNTASLTISGVQAEDEADYYCQSYSSGINIFGGGTKLTVL
notes: also called HV3-LV4
In turn, B7 showed a concentration for a half-maximal effect (EC50) in the assay with Human CD3E & CD3G [4] of 0.0337 µg/mL. In addition, the “EC50 (read off the curve)” value with CD3 on Jurkat cells is about 0.04 µg/mL.

B8: VH_V3_VL_V2 (antibody, V domains shown)
VH: EVQLVESGGGLVQPGRSLRLSCAASGFTFNNYWMSWVRQAPGKGLEWVASITKTGGSTYYPDSVKGRFTISRDNAKSTLYLQMNSLRSEDTATYYCTREYYYDPYIDYWGQGVLVTVSS
VL: QFALTQPRSVSGNLGSSVKISCKRTTGNIGSNYVNWYQQHEGKAPTTMIYRDDKRPDGVPDRFSGSKDRSGNTALLTINNLQTEDEADYYCQSYSSGINIFGGGTKLTVL
notes: also called HV3-LV2
As to B8, the binding result with Human CD3E & CD3G [2] is “no binding (tested: 10 µg/ml)”.

B9: VH_V4_VL_V4 (antibody, V domains shown)
VH: EVQLVESGGGLVQPGGSLRLSCAASGFTFNNYWMTWIRQAPGKGLEWVASITKTGGSTYYPDSVKGRFTISRDNSKSTLYLQMNSLRAEDTAVYYCTREYYYDPYIDYWGQGTLVTVSS
VL: QFALTQPRSVSGSLGQSVTLSCTRTTGNIGSNYVNWYQQHEGKAPKTMIYRDDKRPSGVPDRFSGSIDRSSNTASLTISGVQAEDEADYYCQSYSSGINIFGGGTKLTVL
notes: also called HV4-LV4
As for B9, in the assay with Human CD3E & CD3G [5], the EC50 was determined as 0.0305 µg/mL. Besides, the “EC50 (read off the curve)” value with CD3 on Jurkat cells is about 0.04 µg/mL.

B10: C3002-2-HC-LV4 (antibody, V domains shown)
VH: EVQLVESGGGLVQPGGSLRLSCAASGFTFNNYWMTWIRQAPGKGLEWVASITKTGGSTYYPDSVKGRFTISRDNAKNSLYLQMNSLRAEDTATYYCTREYYYDPYIDYWGQGVMVTVSS
VL: QFALTQPRSVSGSLGQSVTLSCTRTTGNIGSNYVNWYQQHEGKAPKTMIYRDDKRPSGVPDRFSGSIDRSSNTASLTISGVQAEDEADYYCQSYSSGINIFGGGTKLTVL
As to B10, in the assay with CD3 on Jurkat cells, the “EC50 (read off the curve)” value was about 0.04 µg/mL.
